In patent US20230080534A1, “SEMG2 ANTIBODY AND USE THEREOF” (SHANGHAI BIOTROY BIOTECHNIQUE CO., LTD., priority 2020, published 2023):

Assays:
[1] = system: SEMG2(497-509) polypeptide and glycine mutation scanning sequence group; assay: ELISA epitope mapping with glycine mutation scanning sequence group; assay type: binding, human
Source text: To further precisely define the exact epitopes (specific to the level of single amino acid) to which blocking antibodies MM02, MM05, MM07, MM08, MM13, MM14 bind, corresponding ELISA analysis method was established. […] Anti-mouse or anti-rabbit secondary antibodies were then used to detect the corresponding bound antibodies. […] Meanwhile, the different amino acids in the SEMG2(497-509) sequence had different degrees of influence on the binding of similar blocking antibodies (MM02, MM05, MM07, MM08, MM13, MM14) after substitution by glycine. […] The results precisely define the epitope amino acids associated with MM02 and similar antibodies (i.e., antibodies that block the binding between SEMG2 and CD27), and the contribution of each amino acid to the binding.

[2] = system: human malignant melanoma A375 cells; assay: Xenograft model of PBMC-HIS model in human malignant melanoma A375 cells; assay type: in vivo, mouse; details: NPSG mice with PBMC and A375, 5 mg/kg intraperitoneally three times a week
Method: 30 male NPSG mouse models aged 6-8 week were weighed. A375 cells (with confirmed endogenous expression of SEMG2) were cultured in vitro to obtain 1.8×10^8 cells. After 30 mice were inoculated with PBMC, A375 tumor cells were inoculated on the 3rd day. After that, the proportion of hCD45+ cells in mouse blood and the body weight were measured once a week. After inoculation, tumor volume was measured once a week, and the proportion of hCD45+ cells in mouse blood was measured when the average tumor volume reached about 40-80 mm^3. Mice were grouped randomly based on tumor volume and the proportion of hCD45+ cells in mouse blood, and the administration was started immediately. The date began the administration was considered day 0. […] After the tumor growth, the body weight and tumor volume were measured 3 times a week, and the relative count of hCD45+ cells in mouse blood was monitored by flow cytometry 3 times a week. When the tumor volume reached the end point, blood was collected and the same indexed were detected, and the experiment was ended. […] Measurement of tumor volume: after inoculation and before grouping, when tumors were visible, the tumor volume of experimental animals was measured once a week. After inoculation and grouping, the tumor volume of animals in the experiment was measured twice a week. The tumor volume was measured by a bidirectional measurement method. […]

Row | Molecule | decrease of antibody binding after glycine substitution ([1]; substitution of amino acids at positions 501 and 506) | effect of glycine substitution on antibody binding ([1]; substitution of amino acids at positions 507 and 509) | growth of tumor in mice [2]
1 | MM02: mouse monoclonal antibody against SEMG2(497-509), mIgG2b kappa, VH SEQ ID NO:35, VL SEQ ID NO:42 (antibody, V domains shown, UNSURE (1)..(115) VH; UNSURE (1)..(109) VL) VH: QIQLVQSGPEVKKPGETVRISCKASGYTLTTAGIQWVQKMPGKGLKWIGWINTHSGVPEYAEDFKGRFAFFLETSASTAYLQISNLKNEDTATYFCARLGLLGYWGQGTTLTVSS VL: DILLTQSPAILSVSPGERVSFSCRASQSIGTTIHWYQQRTNGSPRLLIKYASESISGIPSRFSGSGSGTDFTLSINSVESEDIADYYCQQSNSWPWTFGGGTKLEIKRA | more than 70% | did not significantly affect | 
2 | MM05: mouse monoclonal antibody against SEMG2(497-509), mIgG1 kappa, VH SEQ ID NO:36, VL SEQ ID NO:43 (antibody, V domains shown, UNSURE (1)..(120) VH; UNSURE (1)..(115) VL) VH: QVQLQQPGAELVRPGASVKLSCEASGYTFTSYWMNWVKQRPGQGLEWIGMIDPSDSETHYNQMFKDKATLTVDKSSSTAYMQLSSLTSEDSAVYYCARYLGGKEGSFDYWGQGTTLTVSS VL: DIVMSQSPSSLAVSAGEKVTMSCKSSQSLLNSRTRKNYLAWYQQKPGQSPKLLIYWASTRESGVPDRFTGSGSGTDFTLTISSVQAEDLAVYYCKQSYSLPWTFGGGTKLEIKRA |  |  | significantly inhibited the growth of tumor
